Square brackets hold non-standard residues; d marks the D form. Primed or numbered codes have the meaning given here. Ends that are not written are not given here. PEG4″ = 4-unit polyethylene glycol spacer; PEG8″ = 8-unit polyethylene glycol spacer
Tests used:
[1] = biological target: type A insulin receptor, P06213; experiment: cell-based or functional assay
[2] = biological target: type B insulin receptor, P06213; experiment: cell-based or functional assay
type A insulin receptor [3] = biological target: type A insulin receptor (UniProt P06213); experiment: cell-based or functional assay
type A insulin receptor [4] = biological target: type A insulin receptor (UniProt P06213); experiment: competitive binding SPA, subtype A insulin receptor (FIG. 17D)

B1: #58: Lys^C8-PEG20K-Lys^C8 #3 dimer (ligand)
chain: Ac-GPEHLCGAELVDALYLVCGDRGFY[PEG8″]KGIVDECCFRSCDLRRLENYCN
modifications: not fully specified (some residues); numbers in words are those of the source; ends and bridges not checked; also: dimer: linker Lys epsilon-amines of two chains joined by bifunctional 20K PEG linker
How did the Phosphorylation (EC50), % IR-A [1] turn out when B1 was run?
Its Phosphorylation (EC50), % IR-A is 18.6%.

B2: #57: Gly^B2-PEG20K-Gly^B2 #11 dimer (ligand)
chain: GPEHLCGAHLVDALYLVCGDRGFYGYGSSSRRAPQTGIVDECCHRSCDLRRLENYCN
modifications: not fully specified (N-terminus); ends and bridges not checked; also: dimer: N-terminal amines of two chains joined by bifunctional 20K PEG linker
Which results are given for B2?
% Insulin Activity (in vitro, assay not named) [1]: 19.7%; Phosphorylation (EC50), % IR-A [1]: 19.7%; potency against the 20K PEGylated monomer (#39) [1]: 4 fold; % Insulin Activity (in vitro, assay not named) [2]: 5.8%; Phosphorylation (EC50), % IR-B [2]: 5.8%; potency against the 20K PEGylated monomer (#39) [2]: 4 fold

B3: #56: Gly^B2-PEG10K-Gly^B2 #11 dimer (ligand)
chain: B2 chain
modifications: not fully specified (N-terminus); ends and bridges not checked; also: dimer: N-terminal amines of two chains joined by bifunctional 10K PEG linker
Which Phosphorylation (EC50), % IR-A [1] does the source give for B3 here?
Its Phosphorylation (EC50), % IR-A is 38.2%.

What about the Phosphorylation (EC50), % IR-B [2] of the same binder?
Its Phosphorylation (EC50), % IR-B is 9.7%.

B4: #55: Lys^B1-PEG9-Lys^B1 #20* dimer, GE5K-B^1(H5,10Y16L17)25-C^1-A^1(H8N18,21) (ligand)
chain: GEEEEEKGPEHLCGAHLVDALYLVCGDRGFYGYGSSSRRAPQTGIVDECCHRSCDLRRLENYCN
B4 was tested. Which Phosphorylation (EC50), % IR-A (type A insulin receptor [3]) did it give?
Its Phosphorylation (EC50), % IR-A is 44%.

B5: #59: Cys^B1-Lys^C8 #2(sc)-#3 dimer (ligand)
chain 1: CGPEHLCGAELVDALYLVCGDRGFYFNKKGIVDECCFRSCDLRRLENYCN
chain 2: GPEHLCGAELVDALYLVCGDRGFYKGIVDECCFRSCDLRRLENYCN
modifications: here or on the partner: N-terminus acetylated; linker Lys epsilon-amine mercaptopropionylated; Cys B1 side chain disulfide-linked to the mercaptopropionyl group on the linker Lys of the second chain
Which results are given for B5?
IC50, antagonism test [1]: 2.08 nM; maximal response [2]: 10%

B6: #60: Cys^B1-Lys^C8 #2(tc)-#3 dimer (ligand)
chain 1: CGPEHLCGAELVDALYLVCGDRGFYFNKK
chain 2: GIVDECCFRSCDLRRLENYCN
chain 3: B5 chain 2
modifications: here or on the partner: N-terminus acetylated; linker Lys epsilon-amine mercaptopropionylated; Cys B1 side chain disulfide-linked to the mercaptopropionyl group on the linker Lys of the single-chain unit
Which IC50, antagonism test [1] does the source give for B6 here?
Its IC50, antagonism test is 1.89 nM.

What about the maximal receptor response [1] of the same binder?
The maximal receptor response was 50%.

What about the maximal response [2] of the same binder?
The maximal response was 50%.

B7: #53: Lys^C8-Lys^C8 #3 dimer, B^1[H5Y16L17]25-PEG8KPEG4-A^1[N18,21] (ligand)
chain: Ac-GPEHLCGAELVDALYLVCGDRGFY[PEG8″]K(mercaptopropionyl)[PEG4″]GIVDECCFRSCDLRRLENYCN
modifications: ends and bridges not checked; also: dimer: linker Lys side chains joined by disulfide to second chain
How did the binding affinity, fold against native insulin (type A insulin receptor [4]) turn out when B7 was run?
The binding affinity, fold against native insulin was 1.5 fold.
